These results are taken from the DeepSol protein solubility set.

A short description of the series: soluble on expression in E. coli; label from the status in PepcDB or PDB records.
Regarding “MAKKVFIGATGQNCGKTTMSVSLMHLARQKYQRVGFIKPIGPKIEMYNGLTVDMDAILMARTFGLEEDLALMNPVPLPKNFTRDYLSGKFDCHTLKKKIVEAFEILDQSYDFLIIEGAGHCGVGSVIGLSNACVAHMLGAPVIVVTDSGIGSAIDAVHLNLALYEKEEADVRMVIVNKLRSDKRDSILGFLRRGFPGRSLQVTGGFNYSPVLANPTLSHIGKLLNLPVHGDADGHSRIIHHIHLGAASSQRVVDALEDATLLVLTSSRDELIVTLSSLYHIPSYRDKIAGLVIAGHMPVSEITQQILDDSMIPYIRVHDSTARVFTTLMEDVSKITAEDQEKLNWIRANAENEIDFEAIDALLLEHHHHHH”, the “soluble on expression in E. coli” value was “not soluble”.

“GDKLLPKTLSKEIVSEPFAKNQLREKARLTNIKGLEIPRVSYTLDDDDFITDVETAKELKAKGDTVKFTTNKFKVFAAISDTVIHGSDVDLVNWVENALQSGLAAKERKDALAVSPKSGLEHMSFYNGSVKEVEGADMYDAIINALADLHEDYRDNATIYMRYADYVKIISVLSNGTTNFFDTPAEKVFGKPVVFTDAAVKPIVGDFNYFGINYDGTTYDTDKDVKKGEYLFVLTAWYDQQRTLDSAFRIAKA”: the “soluble on expression in E. coli” value is “soluble”.

Turning to “MGSDKIHHHHHHTCSACIQYHESCAWCGAPMFDEKKPYARCDSRAKLMEHGCPNSYIEDPATKLDITEDSKLSDQGQVESEEEAVQIKPQEMYVEIRPKSRVRFNVTYRQAVDYPVDLYYLMDLSYSMKDDKQKLSELGDLLAERMRTVTKNFRLGFGSFIDKKLMPFIDPRIEKQLSPCPTPCAEPYGFKHQMSLTTNTAKFKAEVDKAEISGNLDAPEGGFDAVVQALACNKTIGWRERARKMIVFSTDAGFHFAGDGRLAGVVEPNDGTCHLDREGYYTETLNQDYPSIALLHQMIKDRKANVIFAVTKNNQDLYTQLSNALPDVSSSVGVLANDSRNIVDLIEKEYLKISEKIIMVDNANASEGLKLTYRSMCLDGTTLKDTNVCEGIRVGDEVQFEVTLENTHCIDKRDFVLRIGPSGLDETLIVNVKVLCDC”, the “soluble on expression in E. coli” value is recorded as “not soluble”.

Consider “DELLALASIYDGDEFRKAESVQGGETRIYLDLPQNFKIFVSGNSNECLQNSGFEYTICFLPPLVLNFELPPDYPSSSPPSFTLSGKWLSPTQLSALCKHLDNLWEEHRGSVVLFAWMQFLKEETLAYLRIRLLTKPERKLSWLLPPLSNN”, for which the “soluble on expression in E. coli” value was “not soluble”.

“MDQALLDGGYRCYTGEKIDVYFNTAICQHSGNCVRGNGKLFNLKRKPWIMPDEVDVATVVKVIDTCPSGALKYRHK”: the “soluble on expression in E. coli” value is recorded as “soluble”.

On to “LYVFDMDETLINADCAMIWNAFLVEKGIATQPNFIEEDQRLMALYAEGKMDMEDYLEFCMAPLADMPIAHVLMLVEECVEHHILPKQFEQSKTLIAQLDRDDIDMVIISASVTFLVEAVGRRLGIPVALGIDLVEKHGSYSAEIAGVPSYREGKVIRLKAWLDAQPESYSEVHFYTDSINDLPLCEYADYAYLVNPCPQLKARAD”, for which the “soluble on expression in E. coli” value was “not soluble”.

For “MGSDKIHHHHHHMHIKILKNRYPNIVVSKNPIKSSSDTISFFEEPYYFTIPKSNLSEEEAMLLHTLFPEPLPTFPKESTQFWFDLLFGNKELAMTNEKETYRITQFHIKTTTTKSMLQEWQKALLSFFSPEAELIMFSTNYGVIIEKSTGSLLGEEELIAVAGTLENDFYIQSTFFMGLFHPLNDRLRGLFAEERAIFNHNNREVVQTVASESLKVIALRMKESLITNELNDLFHQDDTWIPLIHTLFKNQGNISLTAKELFMHRNTIQYRLDKFYEQTNLSLRKMDGLLLAYLSTLQTNNSNHE”, the “soluble on expression in E. coli” value is recorded as “not soluble”.

As for “MGNSYITKEDNQISATSEQTEDSACLSAMVLTTNLVYPAVLNAAIDLNLFEIIAKATPPGAFMSPSEIASKLPASTQHSDLPNRLDRMLRLLASYSVLTSTTRTIEDGGAERVYGLSMVGKYLVPDESRGYLASFTTFLCYPALLQVWMNFKEAVVDEDIDLFKNVHGVTKYEFMGKDKKMNQIFNKSMVDVCATEMKRMLEIYTGFEGISTLVDVGGGSGRNLELIISKYPLIKGINFDLPQVIENAPPLSGIEHVGGDMFASVPQGDAMILKAVCHNWSDEKCIEFLSNCHKALSPNGKVIIVEFILPEEPNTSEESKLVSTLDNLMFITVGGRERTEKQYEKLSKLSGFSKFQVACRAFNSLGVMEFYK”, the “soluble on expression in E. coli” value is “soluble”.

As to “MKEKVSMVSLGCPKNLVDAEVMLGCLAKDQYEITTDEHEADIIIVNTCSFIGDAKKESIDTILDLADRKHDGRCKLLVVTGCLPQRYQEELATELPEVDIFVGTADYPRIAEIIAEKRGVAEQLRYISDPNYIFDESLPRLKSSPAYTAYLKIAEGCSNCCSYCVIPSLRGALRSRPLDNLLMEARTLVATGTREINLIAQDITAWGRDLPGSPTLEELVRELAKIVGLRWIRLLYAYPDGITDGLIEIIKTEPKVCKYLDIPIQHISDPVLKRMNRRSTEPQIRALIAKIRAEIPEIALRTSLIVGFPGETEEDFRTLLHYVEETQFDRLGVFCYSREEGTPAAGMEDQVSERVKRDRYKKLMKVQARLSFKRNRRLIDTEEEVIVEGYSDETDLLLKGRSSRQAPDIDGQVYITAGNANVGDIVRLRITDSSDYDLIGEIVEELEHHHHHH”, the “soluble on expression in E. coli” value is given as “soluble”.

Take “AHHHHHHGSVKHYSVKVITAKSRTRLGLQLADARINELFNMIQDKTLRRDPLLISRRLVPSWATLNSFMLYFGLILAKEEVSISCTLESAT”: the “soluble on expression in E. coli” value is reported as “not soluble”.

In the case of “RLSDTLMKQALSSVITQEKKRLKSQPKSIAQDIQPPNSMIKNALDEKDSHPFGDCFSDDEFLAIHLYTSCLYRPINHHLRYAPKNDVAPVVEAMNSGLAKLAQYPDYQVSGQLHRGIKQKMDDGEVMSRFKPGNTYRDDAFMSTSTRMDVTEEFTSDVTLHLQSSSAVNIGPFSKNPYEDEALIPPLTPFKVTGLHKQDDRWHVHLNEIAESSDE”, the “soluble on expression in E. coli” value is listed as “not soluble”.

For the sequence “MGSDKIHHHHHHMADKRTEGSGKGGAKAAGKGGLGEVVLLSGGNPQIAKGYGDAPVQAYIAAMPGWKRAVGERLDAIVERTVPGVYKAVKWNSPFYGFEGEGWFLSFHCMTKYIKVAFFRGASLQPLPPGASKQKDVRYLDIYEDAPFDEARFADWVAQASRLPGERM”, the “soluble on expression in E. coli” value is “not soluble”.

Consider “AIAFRHTLSVDPSEQLSQDFADPVTDSGYESDEEAAAAATASLSGEEAALWNLVDPQQRLIFVLDGPAAQTLRVKRTGNLERQVVNIHRLPLERAPTVATSLLAATRPQHLVVALRTIEPHQAAAILTSTSYPSLSNVENASQVLVLANDLVQIDDPLLRPLWSDEGTQQNRIQLRWVETGCIGGITAALLAAGCWLRIPVLALLAVEDDDGPSPATLEALLLAAERFGCFTRADWEIRMPNLRQLLAKRQLLYI”, for which the “soluble on expression in E. coli” value is reported as “soluble”.

For the sequence “MGSDKIHHHHHHMEIVLAKRAGFCFGVKRATQMAFEAAEKEGETFTLGPIIHSPQVVQRLEGMGVKVLSDLEGIGNGTVIIRSHGVTSAELEDAVRRQLEVVDATCPFVKKAQEHVKRLSHDGYTVVVVGDADHPEVQGIVSYAEGPVHVVGSGEEAARLPNMKKVGVVAQTTQSFETLKNVVKECLLKGGEIRVFNTICDATAVRQDEAKALAREVDCMIVIGGFNSANTKRLAEVCSELQPRTYHIETAQELDASWFQGVERVGVTAGASTPKWLIDEVIERIQEFDNKKKG”, the “soluble on expression in E. coli” value was “not soluble”.

With “MSLDRQLWRQFPQVEPQLTALQDYLLRTVQLDNQPIHHKILALLKSGGKLLRPGYFYLFSTFGNAATPAQLQAGAAAIEILHVGTLIHDDVIDDSPTRRGVRTIQMTYGQRNAIYAGDFMFTVYFDQVLKSTTDRSLIQNHIDAMHRILQGELHQMDLNYREDITLDAYLNEIAGKTAELFALSCYQGAQLAGAPQSVIDRTRDIGIAIGCAYQMLDDILDYAGDPKRTQKPVLEDLRSGVYSLPLLLSLSHAPRDFHKLLKKKQAMTLEDIKHVQALVAQYDGVGAAKQLAQDYTDRALTLIQQLPVGSAQQSLEQLTRLLLRRDHEGHHHHHH”, the “soluble on expression in E. coli” value is recorded as “soluble”.

Consider “MHTVVMTKGVPDFREGQVSFDEDGHLERGKTPTVMNPNDKHALRAAFQTKVRNGGHVSLMSMGPPGYKEVLQEGMRDVYADDLYLLSDREMGAADTWATAMTVATGLQNLEEQPDLVFAGFKTADGETGHTGPQTCWCLDWPIITHVLSLDIDEDAGTVRAKRLVDGDISEIETVEAPMPCFIVADPEFEPTYRKASHRLKHKDLREETQERATEYEEYLTIWDHEGLNLDPDYIGLDGSPTIVAGVDPIPKAPSEREATVIEADEREALEPVLDELTPYAAGD”, for which the “soluble on expression in E. coli” value is reported as “not soluble”.

“MAHHHHHHMDATPHMHAKTIFMTHWDGLEKDSDARIIVVGATNRRFTIDDAIRRRLPLQLEVPPPDAKAREKILSILLAHDLEYNPKKDGLIRYVALKTAEYTGSDLSELCKAAALMPLREMESMKAGGASSAAPETVPPLTQQHFDKAMERVKASK”: the “soluble on expression in E. coli” value is given as “soluble”.

“MTVPHIPRGPVMADIAAFRLTEEEKQRLLDPAVGGIILFRRNFQNIEQLKTLTAEIKALRTPELIIAVDHEGGRVQRFIEGFTRLPAMSTLGEIWDKDGASAAETAAGQVGRVLATELSACGIDLSFTPVLDLDWGNCPVIGNRSFHRNPEAVARLALALQKGLTKGGMKSCGKHFPGHGFVEGDSHLVLPEDWRSLSELETADLAPFRIMSREGMAAVMPAHVVYPQVDTKPAGFSEIWLKQILRRDIGFKGVIFSDDLTMEGACGAGGIKERARISFEAGCDIVLVCNRPDLVDELREDFRIPDNPTLAQRWQYMANTLGSAAAQAVMQTADFQAAQAFVAGLASPQDTAGGVKVGEAF”: the “soluble on expression in E. coli” value was “not soluble”.

Regarding “GSMTDGDYDYLIKLLALGDSGVGKTTFLYRYTDNKFNPKFITTVGIDFREKRVVYDTQGADGASGKAFKVHLQLWDTAGLERFRSLTTAFFRDAMGFLLMFDLTSQQSFLNVRNWMSQLQANAYCENPDIVLIGNKADLPDQREVNERQARELAEKYGIPYFETSAATGQNVEKSVETLLDLIMKRMEKCVEKTQVPDTVNGGNSGKLDGEKPAEKKCAC”, the “soluble on expression in E. coli” value was “soluble”.

Take “MKTKEDMQELYFPTPKLIEWENGVRQYSTVRGDTEVLMSYVPPHTNVEPHQHKEVQIGMVVSGELMMTVGDVTRKMTALESAYIAPPHVPHGARNDTDQEVIAIDIKRLKADETYTSPEDYFLDIFKTRDLLPGMEVTFFVEDWVEIMLAKIPGNGGEMPFHKHRNEQIGICIGGGYDMTVEGCTVEMKFGTAYFCEPREDHGAINRSEKESKSINIFFPPRYNRAKAKKMKADELEHHHHHH”: the “soluble on expression in E. coli” value is recorded as “soluble”.

As for “MAAKPGIPKGTRDFSPVEMAKRNYIFNTIRDVFHLFGYQQIETPSMENLSTLMGKYGDEGDKLLFKIQNSGDYFNGITDEELLSRNAVKLASKFCEKGLRYDLTVPFARYVVMHRDEISFPFKRYQIQPVWRADRPQKGRYREFYQCDADVVGSNSLLNEVELVQMIDRVFGKFGVRVSIKINNRKILTGIAEIIGEADKIVDITVAIDKLDKIGLENVNAELASKGIPQEAIDKLQPIILLSGSNEEKLETLKTVLATSEAGLKGVEESEFILKTVSALGVKSEVELDLTLARGLNYYTGAIFEVKALDVQIGSISGGGRYDNLTGVFGMDGMSGVGISFGADRIFDVLNQLDLYPKEAVNGTELLFVNFGDKEAAYCLPILTKVREAGVRAEIYPDASKMKKQMGYANDKQIPFVAIVGENEMNEGKLTLKNMTTGEQSLVTPDELLAVVKA”, the “soluble on expression in E. coli” value is “not soluble”.

For the sequence “MNTSTSAFDFGSSTASSAATSTTSSQPDANDHLSRLAAMTQGVGKEDPETSSTPSTEASLYPGISAAYMQSYGWPQNYNYFGQPLGPATFPGWPQCYPNTAWPNYGELFASSKKGRQTYQRYQTSVLEAKFQQSSYVSKKQREELRLQTQLTDRQIKIWFQNRRMKAKKEKQRVDDHTEHTPLLPANPPKGMGMDMDDEKKWQMAHWPPAAAHNPYQYPLCPP”, the “soluble on expression in E. coli” value is “soluble”.
